One assay concerns the target T1, His6-Mm.USP18 (46-368) (mouse, UniProt Q9WTV6 46-368).
T1 chain: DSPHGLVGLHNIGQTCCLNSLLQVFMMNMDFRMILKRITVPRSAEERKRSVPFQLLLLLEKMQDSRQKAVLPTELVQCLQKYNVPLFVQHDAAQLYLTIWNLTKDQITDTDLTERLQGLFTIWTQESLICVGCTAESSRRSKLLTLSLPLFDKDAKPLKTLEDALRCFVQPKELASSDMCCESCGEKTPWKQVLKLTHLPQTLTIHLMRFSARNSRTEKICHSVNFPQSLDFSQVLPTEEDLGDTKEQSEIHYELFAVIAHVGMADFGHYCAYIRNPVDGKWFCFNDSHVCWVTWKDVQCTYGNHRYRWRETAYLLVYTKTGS
The assay can be described thus: SPR. (In general: Surface plasmon resonance follows binding to a sensor surface in real time, without labels.)

The target in the next assay is T2, His6-Hs.USP18 (16-372) (human, UniProt Q9UMW8 16-372).
T2 chain: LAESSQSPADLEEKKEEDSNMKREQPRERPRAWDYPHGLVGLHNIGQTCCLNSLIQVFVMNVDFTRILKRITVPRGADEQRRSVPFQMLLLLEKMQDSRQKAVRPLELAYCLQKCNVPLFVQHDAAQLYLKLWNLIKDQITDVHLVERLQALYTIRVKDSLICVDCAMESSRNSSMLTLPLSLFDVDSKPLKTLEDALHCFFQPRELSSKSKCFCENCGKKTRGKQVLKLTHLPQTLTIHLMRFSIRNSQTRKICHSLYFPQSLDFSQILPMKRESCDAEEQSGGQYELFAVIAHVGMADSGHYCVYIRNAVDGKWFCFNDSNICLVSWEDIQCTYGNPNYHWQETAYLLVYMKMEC
The assay can be described thus: SPR.

The record followed here is paper PMC11754618 (2025).

The Kd is the free concentration of one partner at which half of the binding sites on the other are occupied at equilibrium, for simple one-to-one binding. Low readings indicate higher affinity, high ones lower affinity.

B1: Ac-mISG15CTD[R153Phe(guan)]-OH (domain or fragment)
chain: LSILVRNERGHSNIYEVFLTQTVDTLKKKVSQREQVHEDQFWLSFEGRPMEDKELLGEYGLKPQSTVIKHLRLFG
modifications: N-terminal acetyl; Phe(guan) (guanidino-phenylalanine) at 153
As to B1, the Kd with His6-Mm.USP18 (46-368) was 1750 nM; in the assay with His6-Hs.USP18 (16-372) it was 1900 nM.

B2: Ac-mISG15CTD[R153Agb]-OH (domain or fragment)
chain: LSILVRNERGHSNIYEVFLTQTVDTLKKKVSQREQVHEDQFWLSFEGRPMEDKELLGEYGLKPQSTVIKHLRLXG
modifications: N-terminal acetyl; Agb (2-amino-4-guanidino-butyric acid) at 153
Consider B2, for which the results for the Kd in the assay with His6-Mm.USP18 (46-368) and with His6-Hs.USP18 (16-372) were 4500 nM and 1200 nM, respectively.

B3: Ac-mISG15CTD-OH (wild type) (domain or fragment)
chain: LSILVRNERGHSNIYEVFLTQTVDTLKKKVSQREQVHEDQFWLSFEGRPMEDKELLGEYGLKPQSTVIKHLRLRG
modifications: N-terminal acetyl
Consider B3, for which the Kd was determined as 2500 nM in the assay with His6-Mm.USP18 (46-368) and 4300 nM with His6-Hs.USP18 (16-372).
